Experiment [1] has as its target plant-expressed griffithsin (Griffithsia sp.) (UniProt P84801). In words: crystal structure.
Experiment [2] deals with His-tagged griffithsin (SeMet-labeled, E. coli-expressed) (Griffithsia sp.) (UniProt P84801). In words: crystal structure.

By stoichiometry N is commonly meant a count of units in the complex or per binding partner. Take “plant-expressed griffithsin (from UniProt P84801 1-121) (natural protein)”: the stoichiometry N in experiment [1] was determined as 2.
The substance “His-tagged griffithsin (SeMet-labeled, E. coli-expressed) (from UniProt P84801 1-121) (natural protein)” gave a stoichiometry N in experiment [2] of 2.

For the origin of these results see article PMC7126681.
